# Laboratory results: article PMC8596624
# Molecular target: UKPV, spike on pseudotyped lentivirus, Alpha (SARS-CoV-2 (B.1.1.7, Alpha)) (UniProt P0DTC2)
# Assay: dot blot
sequence,measurement,value
TTCCGGTTAATTTATGCTCTACCCGTCCACCTACCGGAATTTTTTTTTTTTTTTTTTTTTTTTTTTTTTACGGGTTTGGCGTCGGGCCTGGCGGGGGGATAGTGCGGT [DSA1N5 (T30 linker)],Kd,2.3 pM
